Test: yeast display, Sf9 membrane polyspecificity reagent, FACS + sequencing; frameworks hold sequencing errors
Method in brief: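 Synthetic nanobody libraries on Saccharomyces cerevisiae BJ5465 were galactose-induced for 36–48 hours, stained 1 hour at 4 °C with 10% biotinylated, detergent-solubilized Sf9 membrane reagent and enriched on streptavidin microbeads. FACS then separated cells into low and high (top ~1%) gates by anti-HA (expression) and streptavidin (reagent binding) fluorescence. Genes were colony-PCR amplified, MiSeq 2 × 250 sequenced and CDR-length filtered. A clone's polyreactivity label is that of its gate of origin.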

| Sequence | polyreactivity (PSR sort gate) |
| --- | --- |
| QVQLLESGGGLVQAGGSLRLSCAASGSTFDDYAMGWYRQAPGKEREFVAAIDWSGGSTYYADSVKGRFTISRDNAKYSVYLQMKSLKPEVTAVYYCNADPDVSFDYWGQGTQVTVSS | low polyreactivity |
| QVKLVQSGGGLVEAGGSLLLSCAASGRIFDQYAMGWYRPAPGKERELVAAITTSGDNTYYADSVKGRFTISRDNAKNTVYLQMNSLKPEDTAVYYCKVDIDTFWYGSDYWGQVTQVTVSS | high polyreactivity |
| QVQLVESGGGLVQAGGSLRLSCAASGYTFRQYAMGWYRQAPGKERELVAAIRYSGASTYYADSVKGRFTISRDNAKNTVYLQINSLKPEDTAVYYWNAALRLWGEYIYDYWGQGTQVTVSS | low polyreactivity |
| QVQLVESGGGLVQAGGSLRLSCAASGGTIAYNAMGWYRQAPGKERELVAAISSSGGRTYYADSVKGRFTISRDNAKNTVYLQMNSLKPEDTAVYYCATPVTNGFDYWGQGTQVTVSS | high polyreactivity |
| QVQLVESAGGLVQAGGSLRLSCAASGRTLRGYAMGWYRQAPGKERELVAAITWSGGSTYYADSVKGRFTISRDNAKNTVYLQMNSLKPEDTAVYYCNARSYPDLYDYWGQGTQVTVSS | high polyreactivity |
| QVQLVESGGGLVQAGGSLRLSCAASGRTFYPYAMGWYRQAPGKERELVARISASGGSTYYADSVKGRFTISRDNAKNTVYLQMNSLKTEDTAVYYCARESFWRTLMDYWGQGTQVTVSS | high polyreactivity |
| QVQLVESGGGLVQAGGSLRLSCAASGSTFAYYAMGWYRQAPGKERELVAVISVRGGSTYYADSVKGRFTISRDNAKNTVYLQMNSLKPEDTAVYYCAADTFAGYYYWGQGTQVTVSS | high polyreactivity |
| QVQLVESGGGLVQAGGSHRLSCAASGRIFRPNAMGWYRQAPGKERELVASISQSGGSTYADSVKGRFTISRDNAKNTVYLQMNSLKPEDTAVYYCAKVQGWRYQIYDYWGQGTQVTVSS | low polyreactivity |
| QVQLVESGGGLVQAGGSLRLSCAASGSIFVINPMGWYRQAPGNERELVAAISDSGTGTYYADSVKGRFTISRDNAKNTVYLQMNSLKPEDTAVYYCAADYYYRYRIYDYWGQGTQVTASS | low polyreactivity |
| QVQLVESGGGLVQAGGSLRLSCAASGSTFPYNARGWYRQAPGKERELVAAINSNGGSTYYADSVKGRFTISRDNAKNTVYLQMNSLKPEDTAVYYCAAGFYYRPFYGSSHSYGYWGQGTQVTVSS | low polyreactivity |
| QVQLVESGGGLVQAGGSLRLSCAASGFILDYNAMGWYRQAPGKERELVATITGRGDRTYYADSVKGRFTISRDNAKNTVYLQMNSLKPEDTAVYYCAAGFDGSRHPGFDSWGQGTQVTVSS | low polyreactivity |
| QVQLVESGGGLVQAGGSLRLSCAASGITFELNTMGWYRQAPGKEMELVAVITQNGGSTYYADSVKGRFTISRDNAKNTVYLQMNSLKPEDTAVYYCAATYVWSYLYLIRFYYWGQGTQVTVSS | high polyreactivity |
| QVQLVESGGGLVQAGGSLRLSCAASGRTFPFNAMGWYRQPPGKERELVAVINSGGSTYYADSVKGRFTISRDNAKNTVYLQMNSLKPEDTAVYYCYVKRYLWFTDLLYDYWGQGTQVTVSS | high polyreactivity |
| QVQLVESGGGLVQAGGILRLSCAASGRTFGWNAMGWYRQAPGKERELVAAISWSGTNTYYADSVKGRFTISRDNAKNTVYLQMNCLNPEDTAVYYCAARDWTGSWNGYWYWEYNYWGQGTQVTVSS | low polyreactivity |
| QVQLVESGGGLVQAGGSLRLSCAASGIIFDRYAKGWYRQAPGKERELVAAITYGGGSTYYADSVKGRFTISRDNAKNTVYLQMNSLKPEDTSVYYCAAVPRSGMYYWGQGTQVTVSS | high polyreactivity |
| QVQLVESGGGLVQAGGSLRLSCAASGFTFPLYAMGWYRQAPGKERELVAVISRSGGSTYYADSVKGRFTISRDNAKNTVYLQMNSLKPEDTAVYYCATRRRPQYNKYDYWGQGTQVTVSS | high polyreactivity |
| QVQLVESGGGLVQAGGSLRLSCAASGRTFSFYAMGLYRQAPGKERELVAAIRSDGGTTYYADSVKGRFTISRVNGKNTVYLQMNSLKPEDTAVYYCNTQSFYFVSFSSSRYLRYYWGQGTQVTVSS | low polyreactivity |
| QVQLVESGGGLVQAGGSLRLSCAASGRTFYFYAMGWYRQAPGKERELVAAITWSDGTTYYADSVKGRFTISRDNAKNTVYLHMNSLKPEDTAVYYCAARVRIYGRRYNYWGQGTQVTVSS | high polyreactivity |
| QVQLVESGGGLVQAGGSLRLRCAASGSTFDVYAMGWYRQAPGKERELVASISITDGSTYYADSVKGRFTISRDNAKNTVYLQMNSLIPEVTAVYYCAAEYHTLSKYSGYATHVYWGQGTQVTVSS | low polyreactivity |
| QVQLVESGGGLVQAGGSLRLSCAASGRIFQKYAMGWYRQAPGKERELGAAISSGDSTYADSVKGRFTISRDNAKNTVYLQMNSLKPEDTAVYYCAVDLYDPWWYSYIGEYEYWGQGTQVTVSS | low polyreactivity |
| QVQLVEAGGGLVQAGGSLRLSCAASGRTFGSNAMGWYRQAPGKERELVAVITTSGGSTYYADSVKGRFTISRDNAKNTVYLQMNSLKPEDTAVYYCAKRVATGYIWYGYGYWGQGTQVTVSS | high polyreactivity |
| QVQLVESGVGLVQAGGSHRLSCAASGSILAGNVMGWYRQAPGKERELVAAITRSGTSTYYADSVKGRFTISRDNAKNTVYLQMNSLKPEDTAVYYCNSVRRVGFRGRYTDGYWGQGTQVTVSS | high polyreactivity |

| Sequence | polyreactivity (PSR sort gate) |
| --- | --- |
| QVQLVESGGGLEQAGGRLRLSCAASGSTFGGYAMGWFRQSPGTERQLVAAISGSGVRTYYADSVKGRFTISRDTAKNTVYLEMNSLNQEDTEVFYCAKRVRYPGDLYYYWGQGTQVTVSW | high polyreactivity |
| QVQLVESGGGLVQAGGSLRLSCAASGSIFPYYAMGWYRQAPGKERELVAAITSAGSTNYADSVKGRFTISRDNAKNTVYLQMNSLKPEDTAVYYCAKEYYASGRSYRYPQYDYWGQGTQVTVSS | low polyreactivity |
| QVQLVESGGGLVQAGGSLRLSCAASGRIFGGYAMGWYRQAPGKERELVAAISRSGGSTYYADSVKGRFTISRDNAKNTVYLQMNSLKPEDTAVYYCNVASKRALSRYKGYYWGQGTQVTVSS | high polyreactivity |
| QVQLVESGGCLVQAGGSQRLSCAASGIIFEGYAMRWYRQAPGRERELVAAISQSGGSTRYADSVKGRFTISRDNAKNTVYLQMNRLKAEDTAVYYCAKEVWNWGPYYYWGQGSQVTVSS | low polyreactivity |
| QVQLGESGGGLVQAGGSLRLSCAASGITFGRKTMGWYRQAPGKERELVAAIDSGGNTYADSVKGRFTISRDNAKNTVYLQMNSLKPEDTAVYYCAVDGGEFSSYGYWGQGTQVTVSS | low polyreactivity |
| QVQLVESGGGLVQAGGSLRLSCAASGRIFSIYGMGWYRQAPGKERELVAVISGSVGITYYADSVKGRFTISRDNAKNTVYLQMNSLKPEDTAVYYSNAKVRRRKYDYWGQGTQVTVSS | high polyreactivity |
| QVQLVESGGGLVQAGGSLRLSSAASGFTFKAYALGWYRQAPGTERELVAAITKSGGRTFYADSVKGRFTISRDNAKNTVYLQINCLNPEDTAVYYCSGRRWGYWTGYRGLDYDYWGQGTQVTVSS | high polyreactivity |
| QVQLVESGGGLVQAGGSLRLSCAASGSTFGPNTMGWYRQAPRKERELVAAITSTGSTYYADSVKGRFTISRDNAKNTVYLQMNSLKPEDTAVYYCAARRYYGVYYAFYYWGQGTQVTVSS | high polyreactivity |
| QVQLVDSGGGLVQAGGRLRLSCAASGSTFIYNAMGWYRQAPGKERELVASISTSGGSTYYADSVKGRFTISRDNAKNTVYLQMNSLKPEDTAVYYCAKRYFFKYGYWGQGTQVTVSS | high polyreactivity |
| QVQLVESGGGLVQAGGSLRLSCAASGRTFGVYAMGWYRQAPGKERELVAASRWSGGGTYYADSVKGRFTISRDNAKNTVYLQMNSLKPEDTAVYYGAATFQNSPYSRYTDMYYWGQGTQVTVSS | low polyreactivity |
| QVQLVESGGGLVQAGGSLRLICAASGRTFWSYARGWSRQAPGKERQLVAAIRTSDGITYYADSVKGRFTISRDTAKNTVYLQMNSLKPEDTAVYYCAAENWYKYDYWGQGTQVTVSS | low polyreactivity |
| QVQLVESGGGLVQAGGSLRLSCAASGFTFYRNAMGWYRQAPGKERELVAAISSRGGSTYYADSVKGRFTISRDNAKNTVYLQMNSLKPEDTAVYYCAAYGNYNEYDYWGQGTQVTVSS | high polyreactivity |
| QVQLVESGGGLVQAGGSLRLSCAASGSTLGYYTMGWYRQAPGKERELVAAISGSGVTTSYADSVKGRFTISRDNAKNTVYLQMNSLKPEDTAVYYCARRYRVGTTGGDYWGQGTQVTVSS | high polyreactivity |
| QVQHLESGGGVVQAGGSIRLSCAASVIIFRAYAMGWYRQAPGKERELVAAITSRGGSTYYADSVKGRFTFSRDNAKNTVYLQMNSLKQEDTAVYYCNAAALADYDYWGQGTQVTLSS | low polyreactivity |
| QVQHVESGGGLVQAGGSLRLSCAASGFTSWKYAMGWYRQAPGKERELVAAISQSGGRTYADSVKGRFTISRDNAKNTVYLQMNSLKPEDTAVYYCAARYPRRSQKYQYWGQGTQVTVSS | high polyreactivity |
| QVQLVESGGGLVQEGGSLRLSCAASGSIVTLYAMGWSRQAPGKERELVAAITWYGGSTYYADSVKGRFTISRDNAKNTVYLQMNSLKPEDTAVYYCAKDYLAGGPCEGHVEREYDYWGQGTQVTVSS | low polyreactivity |
| QVQLVESGGGLVQAGGSLRLSCAASGIIFRAYAMGWYRPAPGKETEFVADISYSGGRTYYADSVKGRFTISRDNAKNTVYLPLNSLKPEDTAVYYCGARKLYGSPEHGYWGQGTQVTVSS | high polyreactivity |
| QVQLVESGGGLVEAGGSLRLSCAASGRIFTGYAMGWYRQAPGKERELVAAISDGGSTNYADSVKGRFTISRDNAKNTVYLQMNSLKPEDTAVYYCAADGHSSDQYDYWGPGTQVTVSS | low polyreactivity |
| QVQLVESGGGLVQAGGSLRLSCAASGRTFSSYVMGWYRQAPGKERELVASISRRGGSTYYADSVKGRFTISRDNAKNTVYLQMNSLKPEDTAVYYCNADLRGFGRGTDQYIFDYWGQGTQVTVSS | high polyreactivity |
| QVQLVESGGGLVQAGGSLRFSCAASGSTFYSYAMGWYRQAPGKERELVAGITGNDGSTYYADSVKGRFTISRDNAKNTVYLQMNSLKPEDTAVYYCNTDASPYLFDYWGQGTQVTVSS | low polyreactivity |
| QVQLVESGGGLVQAGGSLRLSCAASGLTFRDNAMGWYRQAPGKERELVAAISTNGGSTYYADSVKGRFTISRDNAKNTVYLQMNSLKPEDTAVYYCAKSFLTQYPQVDSDYWGQGTQVTVSS | low polyreactivity |
